Measured values published in patent publication US20160166666A1, “TUMOR ANTIGEN PEPTIDE” (Sumitomo Dainippon Pharma Co., Ltd., priority 2013, published 2016).

What was measured:
HLA-A*02:01 on T2 cells = target: T1, HLA-A*02:01 on T2 cells (human, UniProt P04439 25-302 at identity 0.94)); assay: MHC class I expression stabilization test on T2 cells as in Example 2, flow cytometry
T1 construct: whole, on cells; Empty MHC class I on the cell surface that is stabilized by an added peptide; the text gives HLA-A*02:01
T1 MHC heavy: not shown

[1] = target: T2, HLA-A*24:02 on T2-A24 cells (human, UniProt P04439-2 25-302 at identity 0.92)); assay: MHC class I expression stabilization test on T2-A24 cells as in Example 2, flow cytometry
T2 construct: whole, on cells; Empty MHC class I on the cell surface that is stabilized by an added peptide; the text gives HLA-A*24:02
T2 MHC heavy: not shown

Question: What does the source list for VMAYDRFVAI (Synthetic peptide, Fmoc method) [Peptide represented by SEQ ID No: 11, OR7C1 V126I (117-126)]?
Answer: mean fluorescence intensity (MFI) solvent ratio (HLA-A*02:01 on T2 cells): 2.2 ratio to solvent; mean fluorescence intensity (MFI) solvent ratio [1]: 3.8 ratio to solvent
